Square brackets hold non-standard residues; d marks the D form. Side chains are listed from the residue outwards. Ends that are not written are not given here. * marks the point of attachment. X2 = 7‑methoxycoumarin‑3‑carboxylic acid, COc1ccc2cc(C(=O)*)c(=O)oc2c1; Dansyl = CN(C)c1cccc2c(S(=O)(=O)*)cccc12; Ahx = NCCCCCC(=O)O
Key:
human D-dimer protein [1] = biological target: T1, human D-dimer protein (human, UniProt P02671 124-216; P02675 164-491; P02679 89-437); assay: SPR surface competition, D-dimer immobilized; competitor 4-D10L17-GPRP at 100 nM; GPRP in running buffer, competing with 100 nM 4-D10L17-GPRP (Biacore)
T1 construct: Bought from Abcam Inc. UK; the chain make-up here is from general knowledge
T1 sequence (looked up) 1: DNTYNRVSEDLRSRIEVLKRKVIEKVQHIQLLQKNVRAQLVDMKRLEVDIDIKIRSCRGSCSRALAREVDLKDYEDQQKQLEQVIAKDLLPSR
T1 sequence (looked up) 2: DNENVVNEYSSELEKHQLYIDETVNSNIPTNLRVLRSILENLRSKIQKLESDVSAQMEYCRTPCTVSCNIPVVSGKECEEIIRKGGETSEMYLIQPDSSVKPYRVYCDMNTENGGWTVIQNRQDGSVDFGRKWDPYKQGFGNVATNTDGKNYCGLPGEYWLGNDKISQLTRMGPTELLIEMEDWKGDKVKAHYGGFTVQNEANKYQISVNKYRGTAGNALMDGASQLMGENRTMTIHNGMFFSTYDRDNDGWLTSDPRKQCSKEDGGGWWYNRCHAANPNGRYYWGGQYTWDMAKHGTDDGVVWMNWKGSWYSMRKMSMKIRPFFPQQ
T1 sequence (looked up) 3: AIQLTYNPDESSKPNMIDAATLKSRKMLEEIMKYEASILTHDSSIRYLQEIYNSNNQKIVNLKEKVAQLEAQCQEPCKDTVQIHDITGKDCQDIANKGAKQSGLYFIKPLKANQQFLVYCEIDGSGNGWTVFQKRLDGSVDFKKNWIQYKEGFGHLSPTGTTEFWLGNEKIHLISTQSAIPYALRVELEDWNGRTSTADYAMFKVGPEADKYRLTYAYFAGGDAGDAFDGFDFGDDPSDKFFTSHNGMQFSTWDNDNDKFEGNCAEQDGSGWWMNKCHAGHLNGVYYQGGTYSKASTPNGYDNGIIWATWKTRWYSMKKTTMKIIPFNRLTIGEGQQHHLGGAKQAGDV
Experimental: (§1) The interactions between the D-dimer protein and binders as well as surface competition experiments were studied using a Biacore 2000 instrument (GE Healthcare Bio-Sciences, Uppsala, Sweden), equilibrated at 25° C. The CM5 sensor chip (Research grade, Biacore) and reagents were from GE Healthcare Bio-Sciences, Uppsala, Sweden. For direct interaction studies between immobilized D-dimer protein and polypeptide conjugates, HBS-EP was used as running buffer. […] For minimum sample dispersion, the samples were injected at a flow rate of 50 uL/min. After 10 min of dissociation the surface was regenerated by 30 s pulse injection of 10 mM glycine at pH 3.0. All injections were serial and first passed over the deactivated dextran surface and then over the immobilized surfaces. Blank injections were included for each measurement series and subtracted from the data. Experiments were performed at least twice, unless stated otherwise. […] The dissociation constants, Kd, were obtained using the Biaevaluation program version 3.2 (Biacore) and assuming a simple 1:1 Langmuir binding mechanism.

[2] = biological target: T2, human Carbonic Anhydrase II (human, UniProt P00918 2-260); assay: fluorescence titration, 50 nM fluorescein labelled binder, HCAII 20 pM to 1 µM
Experimental: The fluorescence titrations were carried out using polypeptides conjugated to a dansyl group rather than a 7-methoxycoumarin to avoid overlap with fluorescein, but a fluorophore is present in each sequence of the scaffold library to simplify identification and quantification throughout synthesis and purification. […] Fluorescence intensities of protein-binder mixtures were compared to intensities of binders without protein. The analysis was performed in 50 mM Hepes buffer at pH 7.4 containing 150 mM NaCl. HCAII was added in 25 steps over a concentration range from 20 pM to 1 μM to the binder at 50 nM concentration and the results analyzed by curve fitting.

[3] = biological target: T3, human Carbonic Anhydrase I (human, UniProt P00915 2-261); assay: SPR, HCAI immobilized on CM5, 1:1 model
T3 construct: also called HCAI; HCA I
T3 sequence (P00915 2-261 limits assumed): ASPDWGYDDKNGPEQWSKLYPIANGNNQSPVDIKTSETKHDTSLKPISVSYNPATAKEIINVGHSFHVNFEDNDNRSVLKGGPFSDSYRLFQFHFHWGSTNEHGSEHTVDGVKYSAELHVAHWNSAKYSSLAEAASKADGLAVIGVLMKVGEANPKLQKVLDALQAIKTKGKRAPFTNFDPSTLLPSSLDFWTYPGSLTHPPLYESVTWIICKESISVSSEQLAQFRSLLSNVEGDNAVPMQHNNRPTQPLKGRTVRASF
Experimental: (§2) HCAI and HCAII were immobilized in different flowcells on a CM-5 (Biacore) chip using standard EDC/NHS coupling in Acetate buffer at pH 5.5.
(§3) SPR measurements were performed on a Biacore® 2000 instrument, with the proteins immobilized on a Biacore® CM-5 sensor chips (GE Healthcare). All interaction studies were performed in Biacore® HSB-EP buffer with the addition of 1% (v/v) DMSO. HCAII (Sigma, lyophilized powder) was dissolved in Acetate buffer pH 5.5 to a 2 mg/mL solution. HCAII were conjugated to the surface by EDC/NHS coupling reactions in Acetate buffer pH 5.5. Solutions of the polypeptide binders were prepared in HBS-EP buffer from stock solutions of 20 μM in DMSO and allowed to flow over the surface at 20 μL/min, with blank injections after every series. All samples were adjusted to contain 1% (v/v) DMSO. Injections were made for 30 s and dissociation was allowed to proceed for 3000 s. Evaluation was performed using a 1:1 binding model.

[4] = biological target: T2, human Carbonic Anhydrase II; assay: SPR, HCAII immobilized on CM5, 1:1 model
Experimental: as §2, §3

[5] = biological target: T2, human Carbonic Anhydrase II; assay: SPR (Biacore 2000), HCAII immobilized on CM5, 1:1 model
Experimental: The sixteen polypeptide conjugates were also characterized by SPR biosensor analysis (Biacore®, GE Healthcare), using a Biacore® 2000 instrument, Biacore® CM-5 chip and HBS-EP buffer pH 7.4 (Biacore®, GE Healthcare) with addition of 1% DMSO for the interaction studies. Peptide solutions were prepared by dilution in buffer from 20 μM stock solutions in DMSO. HCAII was immobilized on the chip using standard EDC/NHS coupling in Acetate buffer pH 5.5. The binders were allowed to flow over the chip at 7 concentrations in the range from 1 nM to 500 nM and the interactions were evaluated using a 1:1 binding model (BiaEvaluation).
as §3, with “Evaluation was performed using a 1:1 binding model.” left out

human D-dimer protein [6] = biological target: T1, human D-dimer protein; assay: SPR screen (Biacore 2000), D-dimer immobilized on CM5, 1:1 Langmuir model
Experimental: (§4) The protein was then further diluted with 10 mM NaOAc at pH 4.6 to give a concentration of about 32 μg/mL. The D-dimer protein was covalently immobilized on the sensor chip surface by amine coupling with HBS-EP (10 mM HEPES, pH 7.4, 150 mM NaCl, 3 mM EDTA and 0.005% P20) (GE Healthcare Bio-Sciences, Uppsala, Sweden) as a running buffer. The CM5 sensor chip surface was activated for 7 min by injecting a solution of EDC/NHS (200 mM 1-ethyl-3-(3-dimethylaminopropyl)-carbodiimide hydrochloride/50 mM N-hydroxysuccinimide) (GE Healthcare Bio-Sciences, Uppsala, Sweden). The D-dimer protein was injected for 1.5 min at flow rate of 5 uL/min over the activated surface and followed by 7-min pulse of 1M ethanolamine at pH 8.5 to deactivate remaining active ester.
as §1

[7] = biological target: T2, human Carbonic Anhydrase II; assay: SPR, ratio of the dissociation constants for HCAI and HCAII
Source text: as §2

[8] = biological target: T3, human Carbonic Anhydrase I; assay: SPR, HCAI immobilized on CM5, 1:1 model; the heads Koff and Kon seem to be swapped
Experimental: as §2, §3

human D-dimer protein [9] = biological target: T1, human D-dimer protein; assay: SPR (Biacore 2000), D-dimer immobilized on CM5, binders at 5-160 nM, 1:1 Langmuir model
human D-dimer protein [10] = biological target: T1, human D-dimer protein; assay: SPR (Biacore 2000) screen, D-dimer immobilized on a CM5 chip, binder at 1, 10 and 100 nM, 3 min injection, 10 min clearance
Experimental: as §4
The interactions between the D-dimer protein and binders as well as surface competition experiments were studied using a Biacore 2000 instrument (GE Healthcare Bio-Sciences, Uppsala, Sweden), equilibrated at 25° C. The CM5 sensor chip (Research grade, Biacore) and reagents were from GE Healthcare Bio-Sciences, Uppsala, Sweden. For direct interaction studies between immobilized D-dimer protein and polypeptide conjugates, HBS-EP was used as running buffer. […] For minimum sample dispersion, the samples were injected at a flow rate of 50 uL/min. […]

B1: GPRP peptide (peptide)
peptide: GPRP
notes: also called GPRP tetrapeptide
For B1, the IC50 (human D-dimer protein [1]) was roughly 50000 nM.

B2: 3-C15L8-B with dansyl and fluorescein (form for fluorescence titration) (designed binder)
chain: Ac-NAADLEAK([Ahx-benzenesulphonamide carboxylic acid])IRHLAEK(Dansyl)LAARGPVDC(N‑(5-fluoresceinyl)maleimide)AQLAEQLARRFEAFARAG
B2 was tested, and the Kd [2] was 29 nM.

B3: 3-C15L8-B (designed binder)
chain: Ac-NAADLEAK([Ahx-benzenesulphonamide carboxylic acid])IRHLAEK(X2)LAARGPVDAAQLAEQLARRFEAFARAG
B3 showed a Kd [3] of 390 nM, a Kd [4] of 60 nM and a Kd [5] of 43 nM.

B4: 2D15L8_GPRP (designed binder)
chain: Ac-NEADLEAK([Gly-Ahx-Pro-Arg-Pro-Gly])IRHLAEKLAARGPVDAAQLAEQLARAFEAFARAG
modifications: also: reporter on Lys15
notes: 'D' in place of 'C' in the name is not explained; tied to 2-C15L8 by the rest of the name
For B4, the Kd (human D-dimer protein [6]) was 10400 nM.

B5: 2D25L22_GPRP (designed binder)
chain: Ac-NEADLEAAIRHLAEALAARGPK([Gly-Ahx-Pro-Arg-Pro-Gly])DAKQLAEQLARAFEAFARAG
modifications: also: reporter on Lys25
notes: 'D' in the name not explained
B5 was tested, and the Kd (human D-dimer protein [6]) was 16100 nM.

B6: 2D10L17_GPRP (designed binder)
chain: Ac-NAADLEAAIKHLAEALK([Gly-Ahx-Pro-Arg-Pro-Gly])ARGPVDAAQLAEQLARAFEAFARAG
modifications: also: reporter on Lys10
notes: 'D' in the name not explained
B6 was tested, and the Kd (human D-dimer protein [6]) was 10300 nM.

B7: 1-C10L17-B with dansyl and fluorescein (form for fluorescence titration) (designed binder)
chain: Ac-NAADLEAAIK(Dansyl)HLAEALK([Ahx-benzenesulphonamide carboxylic acid])ERGPEDC(N‑(5-fluoresceinyl)maleimide)EQLAEQLARAFEAFARAG
B7 gave a Kd [2] of 5 nM.

B8: 4-C37L34-B (designed binder)
chain: Ac-NAADLEARIRHLRERLAARGPRDAAQLAEQLARK([Ahx-benzenesulphonamide carboxylic acid])FEK(X2)FARAG
modifications: not fully specified (C-terminus)
For B8, the Kd [3] was 470 nM, the Kd [4] was 17 nM and the Kd [5] was 15 nM. The “factor of discrimination between HCAI and HCAII” value [7] was roughly 30 fold and the kon [8] was 4400 M⁻¹ s⁻¹.

B9: 2D37L34_GPRP (designed binder)
chain: Ac-NAADLEAAIRHLAERLAARGPVDAAQLAEQLAAK([Gly-Ahx-Pro-Arg-Pro-Gly])FEKFARAG
modifications: also: reporter on Lys37
notes: 'D' in the name not explained
Binder B9 has a Kd (human D-dimer protein [6]) of 13600 nM.

B10: 3D37L34_GPRP (designed binder)
chain: Ac-NAADLEAAIRHLAERLAARGPVDAAQLAEQLARK([Gly-Ahx-Pro-Arg-Pro-Gly])FEKFARAG
modifications: also: reporter on Lys37
notes: 'D' in the name not explained; a Cys in the loop region may be present
In the case of B10, the Kd (human D-dimer protein [6]) is reported as 1150 nM and the Kd (human D-dimer protein [9]) is reported as 15.4 nM.

B11: 1D37L34_GPRP (designed binder)
chain: Ac-NEADLEAAIRHLAERLEARGPADAAQLAEQLAAK([Gly-Ahx-Pro-Arg-Pro-Gly])FEKFARAG
modifications: also: reporter on Lys37
notes: 'D' in the name not explained
Binder B11 has a Kd (human D-dimer protein [6]) of 5070 nM.

B12: 1D15L8_GPRP (designed binder)
polypeptide: Ac-NEADLEAKIRHLAEKLEARGPEDAEQLAEQLARAFEAFARAG
ligand peptide, branch on Lys8: GPRP[Ahx]G
modifications: not fully specified (some residues); also: reporter group on Lys15, bond at chain A 8 to a chain's C-terminus via 6-aminocaproic acid-Gly
B12: no binding (tested: 100 nM) (human D-dimer protein [10]).

Source: patent US20130261013A1 (MODPRO, published 2013)
